This assay has as its target F-actin from rabbit skeletal muscle G-actin (rabbit) (UniProt P68135). As to the kind of experiment: cryoEM images and 2D image averages; 0.83 uM full-length myosin-5a, 3.6 uM calmodulin, 2.1 uM F-actin, 0.20 mM ATP, 95 mM KCl, 48 uM MgCl2, 0.12 mM EGTA, 10 mM MOPS pH 7.0, 22 °C; applied within 10 s to a lacey carbon grid and flash frozen.

“full-length mouse myosin-5a, melanocyte-specific isoform, with calmodulin (from UniProt P0DP23 1-149) (complex)” came in with a percent of the added myosin attached to actin of under 10%.

(Values after PMC10990141.)
